According to PMC7702011 (2020):

Molecular target: Recombinant NPTN polypeptide (UniProt Q9Y639 29-398)
Test: MST

Chain of Recombinant NPTN polypeptide (Q9Y639 29-339): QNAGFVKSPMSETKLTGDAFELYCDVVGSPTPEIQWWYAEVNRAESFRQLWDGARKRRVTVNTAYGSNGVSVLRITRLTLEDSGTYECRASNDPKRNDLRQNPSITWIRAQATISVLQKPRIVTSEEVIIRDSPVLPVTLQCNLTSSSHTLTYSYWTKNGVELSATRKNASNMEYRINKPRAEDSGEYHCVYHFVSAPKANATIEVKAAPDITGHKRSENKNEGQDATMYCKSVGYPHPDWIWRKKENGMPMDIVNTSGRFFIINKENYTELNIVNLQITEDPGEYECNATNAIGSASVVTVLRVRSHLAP

B1: Recombinant MANF polypeptide, labeled with Alexa 647 (ligand)
chain: LRPGDCEVCISYLGRFYQDLKDRDVTFSPATIENELIKFCREARGKENRLCYYIGATDDAATKIINEVSKPLAHHIPVEKICEKLKKKDSQICELKYDKQIDLSTVDLKKLRVKELKKILDDWGETCKGCAEKSDYIRKINELMPKYAPKAASARTDL
modifications: fluorescently labeled with Alexa 647
Kd: 104 nM
